Laboratory results reported in article doi:10.1101/2025.03.18.643936.
Where “and” joins values, the source holds several entries; their conditions need not be identical. Equal values may be shown once.

Target: the i20S and the s20S (human)
Test: mass photometry

recombinantly expressed and purified human PA200 (from UniProt Q14997 1-1843) (natural protein)
Kd, first binding event: 20 nM and 30 nM
